This passage reports Kd results from PMC8519809 (Cell Reports, 2021).

The target of the experiment is SARS-CoV-2 S-HexaPro protein (SARS-CoV-2, Wuhan-Hu-1 type, stabilised). Nature of the experiment: SPR. On the technique in general: In SPR one partner is held on a chip, and binding of the other changes the refractive index at the surface.

B1: Fab22 (Fab, V domains shown)
VH: EVQLQQPGPVLVKPGASVRMSCKASGYRITDNFMNWVKQSHGKSLEWIGIINPYNGGTKYNQKFKGKATLTVDTSSSTAYMELNSLTSEDSAVYYCTRVRGNDYHGRAMDYWGQGTSVTVSS
VL: DVVLTQTPLSLPVNIGDQASISCKSTKSLLNRDGFTFLDWYLQKPGQSPQLLIYLVSNRFSGVPDRFSGSGSGTDFTLKISRVEAEDLGVYYCFQSNYLFTFGSGTKLEIK
One may read the Kd as the free concentration of one partner at which half of the binding sites on the other are occupied at equilibrium, for simple one-to-one binding. The low end stands for higher affinity, the high end for lower affinity. Take B1: the Kd is 6.7 nM.
